# Laboratory results taken from publication PMC2171490 (The Journal of Cell Biology, 2005).
# B1: ECFP–SUV39H1-Nchromo (domain or fragment, human, UniProt O43463-1 3-118, looked up)
# chain: ENLKGCSVCCKSSWNQLQDLCRLAKLSCPALGISKRNLYDFEVEYLCDYKKIREQEYYLVKWRGYPDSESTWEPRQNLKCVRILKQFHKDLERELLRRHHRSKTPRHLDPSLANYL
# B2: ECFP-SUV39H1 (enzyme, human, UniProt O43463-1 1-412, looked up)
# chain: MAENLKGCSVCCKSSWNQLQDLCRLAKLSCPALGISKRNLYDFEVEYLCDYKKIREQEYYLVKWRGYPDSESTWEPRQNLKCVRILKQFHKDLERELLRRHHRSKTPRHLDPSLANYLVQKAKQRRALRRWEQELNAKRSHLGRITVENEVDLDGPPRAFVYINEYRVGEGITLNQVAVGCECQDCLWAPTGGCCPGASLHKFAYNDQGQVRLRAGLPIYECNSRCRCGYDCPNRVVQKGIRYDLCIFRTDDGRGWGVRTLEKIRKNSFVMEYVGEIITSEEAERRGQIYDRQGATYLFDLDYVEDVYTVDAAYYGNISHFVNHSCDPNLQVYNVFIDNLDERLPRIAFFATRTIRAGEELTFDYNMQVDPVDMESTRMDSNFGLAGLPGSPKKRVRIECKCGTESCRKYLF
# B3: ECFP–SUV39H1-ΔSET (domain or fragment, human, UniProt O43463-1 3-249, looked up)
# chain: ENLKGCSVCCKSSWNQLQDLCRLAKLSCPALGISKRNLYDFEVEYLCDYKKIREQEYYLVKWRGYPDSESTWEPRQNLKCVRILKQFHKDLERELLRRHHRSKTPRHLDPSLANYLVQKAKQRRALRRWEQELNAKRSHLGRITVENEVDLDGPPRAFVYINEYRVGEGITLNQVAVGCECQDCLWAPTGGCCPGASLHKFAYNDQGQVRLRAGLPIYECNSRCRCGYDCPNRVVQKGIRYDLCIFR
# Molecular target: EYFP-HP1β (UniProt P83916 1-185)
# Sequence (P83916 whole entry): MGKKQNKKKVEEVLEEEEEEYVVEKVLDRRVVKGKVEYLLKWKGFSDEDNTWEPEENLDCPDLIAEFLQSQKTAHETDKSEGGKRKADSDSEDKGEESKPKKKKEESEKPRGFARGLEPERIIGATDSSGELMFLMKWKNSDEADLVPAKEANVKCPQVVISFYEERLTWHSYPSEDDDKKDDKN
# Test: FRET or BRET
Binder,mean donor fluorescence lifetime τ Mod,mean donor fluorescence lifetime τφ
B1,2.8 ns,2.2 ns
B2,2.9 ns,2.2 ns
B3,2.7 ns,2.1 ns
